Target: T1, a disintegrin and metalloproteinase-17 catalytic domain (6xHis-ADAM-17cd) (UniProt P78536)
T1 construct: ADAM-17 (TACE), catalytic domain; also called TACE; tumor necrosis factor-α-converting enzyme; source: bought: Enzo Life Sciences
Experiment: flow cytometry on cells; scFv variants or TIMP-3 displayed on yeast; soluble 6xHis-ADAM-17cd or MMP-9cd at 100 nM (legend and results; the methods say 150 nM); PBSA pH 7.4; binding read with anti-6xHis Alexa Fluor 647, expression with anti-c-Myc and Alexa Fluor 488; median binding normalised to expression
Conditions: one partner purified

T1 sequence (P78536 215-474): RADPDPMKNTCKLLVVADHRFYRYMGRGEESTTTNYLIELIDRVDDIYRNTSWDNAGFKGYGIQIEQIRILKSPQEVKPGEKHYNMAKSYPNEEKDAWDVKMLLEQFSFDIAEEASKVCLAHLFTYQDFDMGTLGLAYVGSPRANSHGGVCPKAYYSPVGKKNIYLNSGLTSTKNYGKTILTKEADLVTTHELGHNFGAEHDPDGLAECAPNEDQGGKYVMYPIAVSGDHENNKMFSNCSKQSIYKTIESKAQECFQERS

Binder | binding result | binding per expression signal, fold of TIMP-3 [fold]
SynAb-A6 scFv displayed on yeast (scFv, V domains shown, light chain variable domain as printed; glycine-rich peptide linker between VL and VH; heavy chain variable domain as printed; CDR-H3 TDLHVHVYY; VL-VH orientation; source: yeast surface display, S. cerevisiae RJY100, pCTCON2 vector; not shown: Aga2p, N-terminal, kept) VH: EVQLVQSGAEVKKPGESLKISCKGSGYSFTSYWIGWVRQMPGKGLEWMGIIYPGDSDTRYSPSFQGQVTISADKSISTAYLQWSSLKASDTAVYYCARTDLHVHVYYFDYWGQGTLVTVSS VL: not shown | binds | 
SynAb-A7 scFv displayed on yeast (scFv, V domains shown, light chain variable domain as printed; glycine-rich peptide linker between VL and VH; heavy chain variable domain as printed; CDR-H3 KKEYYSR; VL-VH orientation; source: yeast surface display, S. cerevisiae RJY100, pCTCON2 vector; not shown: Aga2p, N-terminal, kept) VH: EVQLVQSGAEVKKPGESLKISCKGSGYSFTSYWIGWVRQMPGKGLEWMGIIYPGDSDTRYSPSFQGQVTISADKSISTAYLQWSSLKASDTAVYYCARKKEYYSRFDYWGQGTLVTVSS VL: not shown |  | ≤ 3
SynAb-A9 scFv displayed on yeast (scFv, V domains shown, light chain variable domain as printed; glycine-rich peptide linker between VL and VH; heavy chain variable domain as printed; CDR-H3 PGGYYDMEYLY; VL-VH orientation; source: yeast surface display, S. cerevisiae RJY100, pCTCON2 vector; not shown: Aga2p, N-terminal, kept) VH: QLQLQESGPGLVKPSETLSLTCTVSGGSISSSSYYWGWIRQPPGKGLEWIGSIYYSGSTYYNPSLKSRVTISVDTSKNQFSLKLSSVTAADTAVYYCARPGGYYDMEYLYFDYWGQGTLVTVSS VL: not shown | binds | 

— PMC12838881, “Engineering Single-Chain Antibody Fragment (scFv) Variants Targeting A Disintegrin and Metalloproteinase-17 (ADAM-17)” (Biomolecules, 2025)
